How the values were obtained:
Experiment in all cases: not given (FIG. 24A)
[1] = target: FIX zymogen (non-activatable FIX) (UniProt P00740)
[2] = target: activated Factor X (FXa) (Homo sapiens (Human)) (UniProt P00742)
[3] = target: free FIXa (activated Factor IX) (human) (UniProt P00740)
FX zymogen = FX zymogen (UniProt P00742)

Measured: Kd

Chain of activated Factor X (FXa) (Homo sapiens (Human)) (P00742 41-179, chain 1 of 2): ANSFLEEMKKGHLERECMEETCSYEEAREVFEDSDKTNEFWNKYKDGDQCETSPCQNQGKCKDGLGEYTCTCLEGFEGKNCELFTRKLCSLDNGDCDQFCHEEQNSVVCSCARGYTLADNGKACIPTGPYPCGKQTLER
Chain of activated Factor X (FXa) (Homo sapiens (Human)) (P00742 235-488, chain 2 of 2): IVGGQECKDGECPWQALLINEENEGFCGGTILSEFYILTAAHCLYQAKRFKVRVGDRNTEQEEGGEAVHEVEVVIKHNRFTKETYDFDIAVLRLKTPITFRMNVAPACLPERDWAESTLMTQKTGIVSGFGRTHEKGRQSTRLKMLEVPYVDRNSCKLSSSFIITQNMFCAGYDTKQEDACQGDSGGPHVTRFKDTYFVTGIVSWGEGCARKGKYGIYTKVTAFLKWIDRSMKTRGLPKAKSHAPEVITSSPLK
Chain of FX zymogen (P00742 41-179, chain 1 of 2): as the sequence (P00742 41-179, chain 1 of 2) above
Chain of FX zymogen (P00742 183-488, chain 2 of 2): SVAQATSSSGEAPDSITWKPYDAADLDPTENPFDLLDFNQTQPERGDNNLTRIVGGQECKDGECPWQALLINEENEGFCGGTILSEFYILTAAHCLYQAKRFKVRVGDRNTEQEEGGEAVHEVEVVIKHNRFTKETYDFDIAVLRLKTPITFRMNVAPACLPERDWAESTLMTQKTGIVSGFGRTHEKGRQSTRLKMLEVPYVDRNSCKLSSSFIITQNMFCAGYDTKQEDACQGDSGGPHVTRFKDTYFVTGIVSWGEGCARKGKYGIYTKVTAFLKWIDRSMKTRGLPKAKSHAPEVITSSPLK

emicizumab (ACE910) sequence identical bispecific antibody (emicizumab biosimilar)
1000 nM: all assays above
